# According to FireProtDB (doi:10.1038/nsb0996-782):
# Conditions: Escherichia coli (strain K12); pH 5.1; 25 °C; GdnHCl; NMR; Sodium acetate 100mM; whole UniProt chain shown
protein,measurement,value
"Ribonuclease HI wild type, P0A7Y4 (protein) MLKQVEIFTDGSCLGNPGPGGYGAILRYRGREKTFSAGYTRTTNNRMELMAAIVALEALKEHCEVILSTDSQYVRQGITQWIHNWKKRGWKTADKKPVKNVDLWQRLDAALGQHQIKWEWVKGHAGHPENERCDELARAAAMNPTLEDTGYQVEV",unfolding free energy,10.5 kcal/mol
